Results published in the nanobody polyreactivity screen of Harvey et al. (2022).

test: yeast display, Sf9 membrane polyspecificity reagent, FACS + sequencing; frameworks hold sequencing errors
Outline: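 Polyreactivity labels are assigned by the sorting gate from which each nanobody was recovered. The gates were low and high (top ~1%), set on anti-HA fluorescence for expression and streptavidin fluorescence for reagent binding. Before sorting, galactose-induced (36–48 hours) yeast display cells were stained for 1 hour at 4 °C with 10% biotinylated, detergent-solubilized Sf9 membrane reagent.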

Row | Sequence | polyreactivity (PSR sort gate)
1 | QVQHVESGGGLFQAGGSLRLSCAASGITFEYYAMGWYRQAPGKERELVAAISGDGSTYYADSVKGRFTISRDNAKNTVYLQMNSLKPEDTAVYYCAAVYYRGFLYYRYYYWGQGTQVTVSS | high polyreactivity
2 | QVQHVESGGGLLQAGGSLRLSCAASGRTFGRYAMGWYRPAPGKERELVADIDYGGGSTYYADSVKGRFTISRDNAKNTFYLQMNSLKPEDTAVYYCNAGRDIGWGYHMDYWGQGTQVTVSS | high polyreactivity
3 | QVQHVESGGGLVHAGCRLRLSCAASGRTFIKYAMGWYRQAPGTERELVAGISGGGASTYYADSVKGRFTISRDNAKNTVYLQMNSLKPEETAVYYFAKLSPRGRRYDYWGQGTQVTVSS | high polyreactivity
4 | QVQHVESGGGLVHAGGSLRLSCAASGTTFYFNPMGWSRQAPGKERELVASITWRGVSTYYADSVKGRFTISRDNAKNTVYLHMNSLNPEDTAVYYCAVAAGIPQRRFYYWGQGTQVTVSS | high polyreactivity
5 | QVQHVESGGGLVKAGGSLRLSCAATGSIFSPYAMGWYILAPGKERELVAAISRSGRTHYADSVKGRFTISRDNAKHTVYLQMNSLKADDTAVYFCAAGVVYGYYYWGQGTQVTVSS | high polyreactivity
6 | QVQHVESGGGLVQAGASLRLSCAASGFIFPSYVKGWYRQAPWKERDLVATISRSGGSTYYADSVKGRFTISRDNAKNTVYLQMNSLKPEDTAVYYCAAYPYSYLQLMDYWGQGTQVTVSS | high polyreactivity
7 | QVQHVESGGGLVQAGCSLRLSCAASGFTFYSYAMGWYSQTPGKERELVASISRTGGGTYYADSVKGSFTISRDNAKNTVSLQMNSLIPVDTAVYYCNASPNIRVRYYYRKYDYWGQGTQVTVSS | high polyreactivity
8 | QVQHVESGGGLVQAGCSLRLSCAASGRTFSSNAMGWYRQAHGKVRELVAVISSGGSTYYADSVKGRFTISRDNAKNTVYLEMYSMKPEDTAVYICAAAVGPSGYYYESDYWGQGTQETVSS | high polyreactivity
9 | QVQHVESGGGLVQAGGRLRLRCAASGSTFDDNAKGWYIHAPGKERELVAGISDGDDSTNYADSVKGRFTISRDNAKNTVYFQMNRLKPEDTAVYYCNARYVRTYGVRFGYDYWGQGTQLTVSS | low polyreactivity
10 | QVQHVESGGGLVQAGGRLRLSCAASGGIYYYAMGWYRQAPGKERELVAAISSGGGNTNYADSVKGRFTISRDNAKNTVYLQMNSLKPEDTAVYYCATDGFIPTYSYTEIGYDYWGQGTQVTVSS | low polyreactivity
11 | QVQHVESGGGLVQAGGRLRLSCAASGSTFQLYAMGWYRQAPGKERELVASISWSGGSTYYADSVTGRFTISRDNAKNTVYLQMNSLKPEDTAVYYCNADFWWRYRPGAVFRSYGYWGQGTQVTVSS | low polyreactivity
12 | QVQHVESGGGLVQAGGRLRLSCPATGSTFTWYALASYRQAPGKERELVAAISRGGSTNYADSVKGRFTISRDNAKNSVYLQMNSLIPEDTAVYYCAAESYWRDVYWGQGTQVTVSS | low polyreactivity
13 | QVQHVESGGGLVQAGGSLPLSGAASGLTFTRYAMGWYRQAPGKESELVAAISKNGGSTYYADSVTGRFTISRDNAKYTVYLQMNSLKPEDTAVYYCAARRSTSYPAGYDYWVQGTQVTVSS | high polyreactivity
14 | QVQHVESGGGLVQAGGSLRLCCAATGNTFGINAMGWYRQAPGKERELDASITGSAGSTYYADSVKGRFTISRDNAKNTVYLQMNSLKPEDTAVYYCNAGARGVMSQPWVIKYYYWGQGTQGTVSS | high polyreactivity
15 | QVQHVESGGGLVQAGGSLRLRCAASARTFLANAMGWYRQAPGKERELLAAITYSGGRTYYADSVKGRFTISRDNAKNTVYLQMNSLKPEDTAVYYCAAEGKVTSQYTMDYWGLGTQVTVSS | high polyreactivity
16 | QVQHVESGGGLVQAGGSLRLRCAASGSTFQYNPMGWYRQAPGKERELVASITRGGNTNYADSVKGRFTISRDNAKNTVYLQMNSLKPEDTAVYYCAARSTYRVSHVDYWGQGTQVTVSS | low polyreactivity

Row | Sequence | polyreactivity (PSR sort gate)
17 | QVQHVESGGGLVQAGGSLRLSCAASALTFSSNAMGWYRQAPGKERELVAVITNGGSTNYADSVKGRLTISRDNAKNTVYLQMNSLKPEDTAVYYCAIDGGPAQDIGMDYWGQGTHVTVSS | low polyreactivity
18 | QVQHVESGGGLVQAGGSLRLSCAASGDIFRPNAMGWYRQAPGKERELVAAITRSGGTTYYADSVKGRFTISRDYAKNTVYLQMNSLNPEDTAVYYCAARGLQYYRYDYWGQGTQVTVSS | low polyreactivity
19 | QVQHVESGGGLVQAGGSLRLSCAASGFIFARNAMGWYRQAPGKERELVAAITWSGGSTYADSVKGRFTISRDNAKNTVYLQMNSLKPEDTAVYYCAADSYPAYLGFVGFDYWGQGTQVTVSS | low polyreactivity
20 | QVQHVESGGGLVQAGGSLRLSCAASGFIFPTYAMGWYRQAPGKERELVATITTNAGGTHYADSVKGRFTISRDNAKNTVYLQMNSLKPEDTAVYYCAAKQYRPKQRKYWTRIYDYWGQGTQVTVSS | low polyreactivity
21 | QVQHVESGGGLVQAGGSLRLSCAASGFIFRRYAMGWYRQAPGKERELVAAISWRSGSTYYADSVKGRFTISRDNAKNTVYLQMNSLKPEDTAVYYCAAKDQATYQLNYWGQGTQVTVSS | high polyreactivity
22 | QVQHVESGGGLVQAGGSLRLSCAASGFIFRRYPLGWYRQAPGKERELVASISSGGNTDYADSVKGRFTISRDNAKNTVYLQMKSLNPEDTAVYYCNARVRWYPGYDYWGQGTQVTVSS | high polyreactivity
23 | QVQHVESGGGLVQAGGSLRLSCAASGFIFWYYTMGWYRQAPGKVRELLATISGGGSTYYADSVKGRFTISRDNAKNTVYLQMNSLKPEDTAVYYCNAVIRTRRVGYGDGVDYWGQGTQVTVSS | high polyreactivity
24 | QVQHVESGGGLVQAGGSLRLSCAASGFTFAYYAKGWYRQAPGKERELVARISSGGSTYYADSVKGRFTISRDNAKNTVYLQMNSLKPEDTAVYYCAARSYYISPWRFDYWGQGTQVTVSS | high polyreactivity
25 | QVQHVESGGGLVQAGGSLRLSCAASGFTFSYNAMGWNRQAPGKERELVAAISATGDGNTYYADSVKGRFTISRDNAKNTVYLQMNSLNPEDTAVYFCNRLPQYALPYRHNGYWGQGTQVTVSS | low polyreactivity
26 | QVQHVESGGGLVQAGGSLRLSCAASGFTFWYYDMGWSRQAPGKERELVAAITNGGRTYYADSVKGRFTISRDNAKNTVYLQMNSLKPEDTAVYYCAAGRWRSGRAEDYWGQGTQVTVSS | high polyreactivity
27 | QVQHVESGGGLVQAGGSLRLSCAASGFTIPNYAMGLYRQAPGKERELVAAITSGGGRTNYADSVKGRFTISRDNAKNTVDLQMNSLKPEDTAVYDCAKTRLRGSEFGFWGQGTQVTVSS | low polyreactivity
28 | QVQHVESGGGLVQAGGSLRLSCAASGGIFERKDMGWYRQAHGKERQLVAGISSVGSTNYADSVKWRFTISRDNAKNTVYLQMNSLKPEDTAVYYCAAKRVRALYVGSEGGYWGQGTQVTVSS | low polyreactivity
29 | QVQHVESGGGLVQAGGSLRLSCAASGGIYYQNAMGWYRQAPGKERELVAAISGRGGRTYYADSVKGRFTISRDNAKNTVYLQMNSLKPEDTAVYYCNADQATFSLYHEMDYWGQGTQVTVSS | low polyreactivity
30 | QVQHVESGGGLVQAGGSLRLSCAASGGTFADYTMGWYRQAPGKERELVAAITSSGGSTYYADSVKGRFTISRDNAKNTVYLQMNSLKTEDTAVYYCAALGYVAMGYWGQGTQVTVSS | high polyreactivity
31 | QVQHVESGGGLVQAGGSLRLSCAASGIIFPYNAMGWYRQAPGKERELVAAITGGGSTYYADSVKGRFTISRDNAKNTVYLQMNSLKPEDTAVYYCAADRSGPGYDYWGQGTQVTVSS | low polyreactivity
32 | QVQHVESGGGLVQAGGSLRLSCAASGIIFRDYGMGWYRQAPGKEREFVATITYSGGGTYYADSVKGRFTISRDNAKNTVYLQMNSLKPEDTAVYYCAAYPFYYDLAYDYWGQGTQVTVSS | low polyreactivity
